The results in this text go back to publication PMC10237651, “Arabidopsis FIN219/JAR1 interacts with phytochrome A under far-red light and jasmonates in regulating hypocotyl elongation via a functional demand manner” (PLOS Genetics, 2023).

This test concerns the target T1, CBP-PHYA (recombinant full-length PHYA) (Arabidopsis, UniProt P14712 1-1122).
T1 construct: phytochrome A (PHYA), Arabidopsis, At1g09570, full length; coding region cloned into pCAL-n in frame with an upstream CBP tag; Made in E. coli; no chromophore is mentioned; also called CBP-PHYA-F; source: E. coli (BL21), purified (Calmodulin Resin)
T1 sequence (looked up): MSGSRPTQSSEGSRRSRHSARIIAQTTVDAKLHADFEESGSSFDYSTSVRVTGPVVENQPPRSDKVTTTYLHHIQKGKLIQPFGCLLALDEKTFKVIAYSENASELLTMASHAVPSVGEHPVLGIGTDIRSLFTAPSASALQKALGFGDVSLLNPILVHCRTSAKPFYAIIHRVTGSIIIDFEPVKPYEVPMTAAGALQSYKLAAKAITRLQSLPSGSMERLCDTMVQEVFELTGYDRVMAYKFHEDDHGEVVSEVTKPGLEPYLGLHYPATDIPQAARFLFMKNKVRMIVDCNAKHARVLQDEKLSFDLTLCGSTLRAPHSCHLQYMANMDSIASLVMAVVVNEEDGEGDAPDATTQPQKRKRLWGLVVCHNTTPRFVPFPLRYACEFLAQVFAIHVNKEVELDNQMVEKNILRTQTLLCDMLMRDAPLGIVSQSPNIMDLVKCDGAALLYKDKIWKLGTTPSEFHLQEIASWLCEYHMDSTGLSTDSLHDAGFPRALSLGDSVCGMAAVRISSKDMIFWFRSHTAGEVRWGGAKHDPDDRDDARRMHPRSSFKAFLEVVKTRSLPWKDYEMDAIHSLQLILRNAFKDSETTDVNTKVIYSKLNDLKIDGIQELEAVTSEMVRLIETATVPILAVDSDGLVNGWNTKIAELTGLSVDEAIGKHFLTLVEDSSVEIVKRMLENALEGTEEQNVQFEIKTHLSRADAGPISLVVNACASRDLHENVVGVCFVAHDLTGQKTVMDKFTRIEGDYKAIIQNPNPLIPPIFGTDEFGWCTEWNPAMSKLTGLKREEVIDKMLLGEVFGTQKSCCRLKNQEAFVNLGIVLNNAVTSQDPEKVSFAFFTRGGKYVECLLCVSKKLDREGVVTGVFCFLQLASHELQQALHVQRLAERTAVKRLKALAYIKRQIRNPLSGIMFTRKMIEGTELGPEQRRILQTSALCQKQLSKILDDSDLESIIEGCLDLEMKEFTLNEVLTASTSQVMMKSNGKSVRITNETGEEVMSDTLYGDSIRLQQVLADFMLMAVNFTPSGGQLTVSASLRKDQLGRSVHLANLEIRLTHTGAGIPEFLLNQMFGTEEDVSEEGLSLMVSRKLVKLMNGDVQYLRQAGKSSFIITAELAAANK
The test can be described thus: pull-down; 1 μg GST-tagged FIN219 protein on 10 μl GST beads overnight at 4°C in 1 ml 1X PBS, then 1 μg CBP-PHYA for 2 h at 4°C; eight washes with 1X PBS; blots with anti-GST and anti-phyA. Conditions: both partners purified.

B1: GST-FIN219-FL (enzyme, Arabidopsis, UniProt Q9SKE2 1-575, looked up)
chain: MLEKVETFDMNRVIDEFDEMTRNAHQVQKQTLKEILLKNQSAIYLQNCGLNGNATDPEEAFKSMVPLVTDVELEPYIKRMVDGDTSPILTGHPVPAISLSSGTSQGRPKFIPFTDELMENTLQLFRTAFAFRNRDFPIDDNGKALQFIFSSKQYISTGGVPVGTATTNVYRNPNFKAGMKSITSPSCSPDEVIFSPDVHQALYCHLLSGILFRDQVQYVFAVFAHGLVHAFRTFEQVWEEIVTDIKDGVLSNRITVPSVRTAMSKLLTPNPELAETIRTKCMSLSNWYGLIPALFPNAKYVYGIMTGSMEPYVPKLRHYAGDLPLVSHDYGSSEGWIAANVTPRLSPEEATFAVIPNLGYFEFLPVSETGEGEEKPVGLTQVKIGEEYEVVITNYAGLYRYRLGDVVKVIGFYNNTPQLKFICRRNLILSINIDKNTERDLQLSVESAAKRLSEEKIEVIDFSSYIDVSTDPGHYAIFWEISGETNEDVLQDCCNCLDRAFIDAGYVSSRKCKTIGALELRVVAKGTFRKIQEHFLGLGSSAGQFKMPRCVKPSNAKVLQILCENVVSSYFSTAF
notes: FIN219/JAR1, Arabidopsis, At2g46370, full length; also called full-length FIN219; source: E. coli, purified (Glutathione Sepharose 4B)
Consider B1, for which the binding result was “binds”.
